One data set has as its target U2AF65 E425A (UniProt P26369 1-475, E425A). Briefly: EMSA. (In general: A gel shift assay detects complexes by their altered migration in electrophoresis.)
For the next data set, the target named is U2AF65 WT (UniProt P26369 1-475). Briefly: EMSA.

From publication PMC9186393 come the findings set out here.

U2AF65 WT, sequence (P26369 whole entry, one chain of several): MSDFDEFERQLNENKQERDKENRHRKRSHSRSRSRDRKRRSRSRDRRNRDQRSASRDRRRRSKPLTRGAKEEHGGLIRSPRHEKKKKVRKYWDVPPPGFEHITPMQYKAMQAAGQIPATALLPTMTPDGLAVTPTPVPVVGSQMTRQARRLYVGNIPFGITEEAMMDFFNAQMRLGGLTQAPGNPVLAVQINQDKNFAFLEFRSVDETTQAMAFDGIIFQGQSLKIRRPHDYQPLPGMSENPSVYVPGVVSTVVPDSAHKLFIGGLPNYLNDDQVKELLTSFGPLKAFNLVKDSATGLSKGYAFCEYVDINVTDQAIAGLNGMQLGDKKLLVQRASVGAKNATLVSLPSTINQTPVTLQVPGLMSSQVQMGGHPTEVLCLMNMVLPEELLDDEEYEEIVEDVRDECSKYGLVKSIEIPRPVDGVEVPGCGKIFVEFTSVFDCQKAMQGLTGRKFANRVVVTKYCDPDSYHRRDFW
U2AF65 E425A, sequence (P26369 whole entry E425A, one chain of several): as the sequence (P26369 whole entry, one chain of several) above, with E425A counted along it

As to CUUAACUCCUCUCUACAGU (ssRNA) [U12 Scn8a 3' splice site], the binding result with U2AF65 E425A and in the data set with U2AF65 WT was “no binding” in each case.
Consider CCUGCUUUUUUCCCUUUUAAGGCCUCGAUCCA (ssRNA) [U2 LPL 3' splice site], for which the binding result with U2AF65 E425A and with U2AF65 WT was “binds” each time.
